Residue numbers refer to the chain shown, from its start.
T1: phycoerythrin (PE)-conjugated BCMA (Recombinant Human TNFRSF17 protein, Fc/His-tagged, R-PE labeled); Creative … (human, UniProt Q02223 1-54, R-PE labeled)
T1 construct: Bought reagent; also called BCMA-PE; not shown: Fc/His tag of the bought reagent
T1 sequence: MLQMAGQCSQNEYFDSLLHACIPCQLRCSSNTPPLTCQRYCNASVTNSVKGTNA

T2: human BCMA on cells (human, UniProt Q02223 1-184)
T2 sequence: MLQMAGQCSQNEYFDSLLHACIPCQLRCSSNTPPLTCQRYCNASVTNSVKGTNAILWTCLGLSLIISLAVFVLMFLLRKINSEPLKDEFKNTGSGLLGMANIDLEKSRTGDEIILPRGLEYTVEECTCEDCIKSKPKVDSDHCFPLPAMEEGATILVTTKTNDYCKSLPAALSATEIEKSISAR

B1: CAR comprising scFv-J4 (SEQ ID NO: 52) (other)
chain: DIVMTQSPDSLSVSLGERATINCRASESVTILGSHLIHWYQQKPGQPPKLLIQLASNVQTGVPDRFSGSGSGTDFTLTISSLQAEDVAVYYCLQSRTIPRTFGGGTKVEIKGSTSGSGKPGSGEGSTKGQIQLVQSGAEVKKPGESVKISCKASGYTFTDYSINWVRQAPGQGLKWMGWINTETREPAYAYDFRGRFAFSLDTSASTAYLQISSLKAEDTAVYFCALDYSYAMDYWGQGTLVTVSS
notes: CAR on mRNA-electroporated human CD8+ T cells; Only the scFv is identified; not shown: rest of the CAR (hinge, transmembrane, cytoplasmic domains) not specified for this construct
B2: CAR comprising scFv-CAS2 (C2) (SEQ ID NO: 61) (other)
chain: DIVLTQSPASLAVSPGQRATISCRASESVTILGSHLIHWYQQKPGQPPKLLIQLASNVQTGVPARFSGSGSRTDFTLTISSLEPEDVAVYYCLQSRTIPRTFGQGTKVEIKGSTSGSGKPGSGEGSTKGQITLKESGPTLVKPTQTLTLSCKASGYTFTDYSINWVRRAPGKGLEWMGWINTETREPAYAYDFRGRFVFSLDTSVSMAYLQISSLKAEDTAVYYCALDYSYAMDYWGQGTLVTVSS
notes: as for B1
B3: CAR comprising scFv-Yi2 (SEQ ID NO: 55) (other)
chain: DIQLTQSPSSLSASVGDRVTITCRASQSVTILGSHLIHWYQQKPGKAPKLLIQLASNVQTGVPSRFSGSGSGTDFTLTISSLQPEDVATYYCLQSRTIPRTFGQGTKLEIKGSTSGSGKPGSGEGSTKGQVQLVQSGGGLVQPGRSVKLSCAASGYTFTDYSINWVRQAPGKGLEWVGWINTETREPAYAYDFRGRFTISRDTSKNTAYLQMNSLRAEDTAVYYCARDYSYAMDYWGQGTLVTVSS
notes: as for B1
B4: CAR comprising scFv-Yi1 (SEQ ID NO: 54) (other)
chain: DIVLTQSPSSLSASVGDRATISCRASESVTILGSHLIHWYQQKPGQAPKLLIQLASNVQTGVPARFSGSGSGTDFTLTISSVEPDDVAVYYCLQSRTIPRTFGGGTKLEIKGSTSGSGKPGSGEGSTKGQIQLVQSGPELKKPGGSVKISCAASGYTFTDYSINWVKQAPGKGLEWVGWINTETREPAYAYDFRGRFTFSLDTSKSTAYLQMNSLRAEDTAVYYCALDYSYAMDYWGQGTLVTVSS
notes: CAR on mRNA-electroporated human CD8+ T cells; not shown: rest of the CAR (hinge, transmembrane, cytoplasmic domains) not specified for this construct
B5: CAR comprising scFv-Y34 (SEQ ID NO: 59) (other)
chain: DIVLTQSPSSLSASVGDRATISCRASESVTILGSHLIHWYQQKPGQAPKLLIQLASNVQTGVPARFSGSGSGTDFTLTISSVEPEDVAVYYCLQSRTIPRTFGQGTKVEIKGSTSGSGKPGSGEGSTKGQIQLVESGAEVKKPGGSVKVSCKASGYTFTDYSINWVRQAPGKGLEWVGWINTETREPAYAYDFRGRFAISAETSKSTAYLQMNSLRAEDTAVYYCALDYSYAMDYWGQGTLVTVSS
notes: as for B1
B6: CAR comprising scFv-Y31 (SEQ ID NO: 56) (other)
chain: B4 chain with D85E, G104Q, L108V, L201A
notes: as for B1
B7: CAR comprising scFv-Y33 (SEQ ID NO: 58) (other)
chain: B4 chain with D85E, G104Q, L108V, Q135E, P138A, L140V
notes: as for B1
B8: CAR comprising scFv-J2 (SEQ ID NO: 50) (other)
chain: DIVLTQSPASLAVSLGERATISCRASESVSILGSHLLHWYQQKPGQPPKLLIYLASNLQTGVPARFSGSGSGTDFTLTISSLEAEDVAVYYCLQSRTIPRTFGQGTKLEIKGSTSGSGKPGSGEGSTKGQIQLVQSGAEVKKPGASVKISCKASGYTFTDYSINWVRQAPGQGLEWMGWINTETREPAYAYDFRGRVTMTRDTSASTAYLQISSLKAEDTAVYFCALDYSYAMDYWGQGSLVTVSS
notes: as for B1
B9: CAR comprising scFv-J3 (SEQ ID NO: 51) (other)
chain: B8 chain with E17K, S30T, L37I, L58V, I131V
notes: as for B1
B10: CAR comprising scFv-J1 (SEQ ID NO: 49) (other)
chain: B1 chain with E145A, K175E, F197V, A198T, F199M, S200T, L201R, T240S
notes: as for B1
B11: CAR comprising scFv-J5 (SEQ ID NO: 53) (other)
chain: DIVLTQSPASLAVSLGERATISCRASESVSILGSHYLAWYQQKPGQPPKLLIYLASNLQTGVPARFSGSGSGTDFTLTISSLEAEDVAVYYCQQSRTIPRTFGQGTKLEIKGSTSGSGKPGSGEGSTKGQIQLVQSGAEVKKPGESVKISCKASGYTFTDYSINWVRQAPGQGLKWMGWINTETREPAYAYDFRGRFAFSLDTSASTAYLQISSLKAEDTAVYFCALDYSYAMDYWGQGTLVTVSS
notes: as for B1
B12: CAR comprising scFv-1′ (SEQ ID NO: 62) (other)
chain: B4 chain with D85E, G104Q, L108V, D160S, S162D, K167R, L201A
notes: as for B1
B13: CAR comprising scFv-9′ (SEQ ID NO: 65) (other)
chain: DIVLTQSPSSLSASVGDRATISCRASESVSFLGINLIHWYQQKPGQAPKLLIYSASNLQSGVPARFSGSGSGTDFTLTISSVEPEDVAVYYCLQSKNFPRTFGQGTKVEIKGSTSGSGKPGSGEGSTKGQIQLVQSGPELKKPGGSVKISCAASGYTFTDYSINWVRQAPGKGLEWVGWINTETREPAYAYDFRGRFTFSADTSKSTAYLQMNSLRAEDTAVYYCALDYSYAMDYWGQGTLVTVSS
notes: as for B1
B14: CAR comprising scFv-12′ (SEQ ID NO: 68) (other)
chain: DIVLTQSPSSLSASVGDRATISCRASESVTILGSHLIHWYQQKPGQAPKLLIQLASNVQTGVPARFSGSGSGTDFTLTISSVEPEDVAVYYCLQSKNFPRTFGQGTKVEIKGSTSGSGKPGSGEGSTKGQIQLVQSGPELKKPGGSVKISCAASGYTFTSYDINWVRQAPGKGLEWVGWINTETREPAYAYDFRGRFTFSADTSKSTAYLQMNSLRAEDTAVYYCALDYLYSLDFWGQGTLVTVSS
notes: as for B1
B15: CAR comprising scFv-10′ (SEQ ID NO: 66) (other)
chain: B14 chain with K96R, N97T, F98I, D162S, Y191Q, D192G, R194T
notes: as for B1
B16: CAR comprising scFv-8′ (SEQ ID NO: 64) (other)
chain: B13 chain with K96R, N97T, F98L
notes: as for B1
B17: CAR comprising scFv-4′ (SEQ ID NO: 63) (other)
chain: B4 chain with D85E, G104Q, L108V, K167R, L201A, S230T, A232G
notes: as for B1
B18: CAR comprising scFv-11′ (SEQ ID NO: 67) (other)
chain: DIVLTQSPSSLSASVGDRATISCRASESVTILGSHLIHWYQQKPGQAPKLLIQLASNVQTGVPARFSGSGSGTDFTLTISSVEPEDVAVYYCLQSRTIPRTFGQGTKVEIKGSTSGSGKPGSGEGSTKGQIQLVQSGPELKKPGGSVKISCAASGYTFTSYDINWVRQAPGKGLEWVGWINTNTGNPTYAQGFTGRFTFSADTSKSTAYLQMNSLRAEDTAVYYCALDYTYGMDYWGQGTLVTVSS
notes: as for B1

Molecular target: T1, phycoerythrin (PE)-conjugated BCMA …
Test: flow cytometry; CAR T cells stained with BCMA-PE, 3 days after electroporation
Description: (§1) CAR T cells obtained from the above-described process were tested for viability, CAR protein expression, BCMA binding, and cytotoxicity, i.e., the ability to kill BCMA+ myeloma (tumor) cells. Viability, CAR expression, and BCMA binding were determined by flow cytometry on a GUAVA® […]® 12HT Flow cytometer (EMD Millipore). To test viability, a sample of the CAR T cells was mixed with propidium iodide and run on the flow cytometer with electronic gating on fluorescence in the near infrared channel. To test CAR protein expression and BCMA binding, a sample of the CAR T cells was incubated with 0.4 ug/mL of phycoerythrin (PE)-conjugated BCMA (Recombinant Human TNFRSF17 protein, Fc/His-tagged, R-PE labeled; Creative Biomart, Shirley, N.Y.). CAR expression was assessed on the flow cytometer with electronic gating on fluorescence in the yellow channel to detect presence or absence of emission from BCMA-PE on CAR-positive and CAR-negative cells. BCMA binding was determined by measuring the intensity of fluorescence in the yellow channel to determine the relative quantity of BCMA-PE bound to labelled CAR-positive cells. For the viability, expression, and BCMA binding assays, CD8+ T cells electroporated without mRNA (CAR-negative T Cells) were tested as a parallel control.
Numerous CAR-encoding mRNA constructs were prepared using the mRNA construct of SEQ ID: 29 as a starting point (which encodes a CAR of sequence SEQ ID: 19 and comprises the scFv of sequence SEQ ID: 48). These constructs encoded the same or substantially the same amino acid residues in the scFv complementary-determining regions (CDRs) but varied with respect to the amino acid residues in the scFv framework regions. In making these variations, the experimenter's intent was to humanize the scFv framework regions without reducing BCMA-binding and tumor-killing properties of CAR T cells that express the CAR. For each of the mRNA constructs, CAR T cells were prepared by transfection into human CD8+ cells, substantially as described in Example 1. The CAR T cells made from each mRNA construct were then tested 3 days after electroporation for BCMA binding and/or tumor killing, as substantially described in Example 1.

Binder | BCMA Binding (relative to SEQ ID: 48) | BCMA Binding | BCMA Binding (relative to SEQ ID: 54)
B1 | 82 relative to SEQ ID: 48 = 100 | – | –
B2 | – | 34 relative (SEQ ID: 48 = 100) | –
B3 | 12 relative to SEQ ID: 48 = 100 | – | –
B4 | 141 relative to SEQ ID: 48 = 100 | – | 100 relative to SEQ ID: 54 = 100
B5 | – | – | 79 relative to SEQ ID: 54 = 100
B6 | – | – | 58 relative to SEQ ID: 54 = 100
B7 | – | – | 40 relative to SEQ ID: 54 = 100
B8 | 51 relative to SEQ ID: 48 = 100 | – | –
B9 | 54 relative to SEQ ID: 48 = 100 | – | –
B10 | 76 relative to SEQ ID: 48 = 100 | – | –
B11 | 103 relative to SEQ ID: 48 = 100 | – | –

Molecular target: T1, phycoerythrin (PE)-conjugated BCMA …
Test: as above
Remark: another data set of the same source
Description: as §1
For each of the mRNA constructs, CAR T cells were prepared by transfection into human CD8+ cells, as described in Example 1. The CAR T cells made from each mRNA construct were then tested 3 days after electroporation for BCMA binding and tumor killing, as described in Example 1.

Binder | BCMA Binding (arbitrary units)
B12 | 189
B13 | 173
B14 | 446
B15 | 269
B16 | 496
B17 | 439
B18 | 310

Molecular target: T2, human BCMA on cells
Test: cell-based or functional assay

Binder | Killing (% killed), Effector:target ratio of 1:2 [%]
B12 | 3
B13 | 86
B14 | 7
B15 | 81
B16 | 26
B17 | 78
B18 | 0

Reference: patent publication US20220089678A1 (CARTESIAN THERAPEUTICS, published 2022)
